# Laboratory results reported in patent US20170096493A1 (EISAI R AND D MANAGEMENT, published 2017).
# T1: Human Notch4-NRR domain Fc fusion protein (human, UniProt Q99466 1046-1445, limits assumed)
# T1 construct: Expressed in a CHO cell line, used from culture supernatant; 1 is named; also called Human Notch4-NRR Fusion Protein; not shown: Fc
# T1 sequence: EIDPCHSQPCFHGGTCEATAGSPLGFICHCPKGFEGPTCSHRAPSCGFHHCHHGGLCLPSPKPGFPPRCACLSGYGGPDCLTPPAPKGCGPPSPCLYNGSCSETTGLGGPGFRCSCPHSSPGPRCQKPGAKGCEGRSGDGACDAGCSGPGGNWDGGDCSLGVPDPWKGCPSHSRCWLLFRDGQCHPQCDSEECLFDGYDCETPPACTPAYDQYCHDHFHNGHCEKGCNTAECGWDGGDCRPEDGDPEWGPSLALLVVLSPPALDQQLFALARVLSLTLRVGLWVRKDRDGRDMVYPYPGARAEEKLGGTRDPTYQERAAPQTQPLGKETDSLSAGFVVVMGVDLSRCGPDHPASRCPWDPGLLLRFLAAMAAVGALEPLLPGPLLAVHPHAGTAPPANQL
# T2: Human Notch4-NRR-SEAP-HA-His (human, UniProt Q99466 1046-1445)
# T2 construct: also called human Notch4-NRR-SEAP-His; human Notch4 NRR domain; not shown: secretory alkaline phosphatase (SEAP); hemagglutinin (HA) tag; histidine tag (x10)
# T2 sequence: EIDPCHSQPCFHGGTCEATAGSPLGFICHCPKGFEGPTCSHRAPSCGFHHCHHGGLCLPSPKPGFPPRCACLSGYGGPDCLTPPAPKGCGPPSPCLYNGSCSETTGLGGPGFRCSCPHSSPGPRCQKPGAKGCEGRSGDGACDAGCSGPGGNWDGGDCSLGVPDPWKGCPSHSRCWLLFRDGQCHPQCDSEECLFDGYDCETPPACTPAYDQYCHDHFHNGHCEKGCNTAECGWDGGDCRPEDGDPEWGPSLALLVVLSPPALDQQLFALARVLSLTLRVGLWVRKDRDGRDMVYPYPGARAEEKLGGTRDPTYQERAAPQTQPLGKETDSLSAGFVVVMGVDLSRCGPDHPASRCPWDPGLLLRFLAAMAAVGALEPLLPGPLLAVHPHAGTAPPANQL
# T3: Human Notch4-NRR domain fused with secretory alkaline phosphatase (SEAP) and 10× histidine tag (human, UniProt Q99466 1046-1445)
# T3 construct: 1 is named; not shown: secretory alkaline phosphatase (SEAP); 10x histidine tag
# T3 sequence: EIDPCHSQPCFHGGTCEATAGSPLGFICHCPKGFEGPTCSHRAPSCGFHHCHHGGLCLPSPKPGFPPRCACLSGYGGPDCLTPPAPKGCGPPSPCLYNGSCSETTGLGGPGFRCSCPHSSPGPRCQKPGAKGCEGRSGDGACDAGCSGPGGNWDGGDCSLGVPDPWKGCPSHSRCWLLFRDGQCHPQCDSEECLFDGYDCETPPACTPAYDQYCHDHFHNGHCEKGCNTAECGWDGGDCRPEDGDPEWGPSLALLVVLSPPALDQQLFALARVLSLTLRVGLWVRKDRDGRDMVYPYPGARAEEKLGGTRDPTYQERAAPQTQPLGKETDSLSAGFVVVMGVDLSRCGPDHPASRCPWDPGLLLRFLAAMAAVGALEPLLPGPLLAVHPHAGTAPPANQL
# T4: Mouse Notch4-NRR domain fused with SEAP and 10× histidine tag (mouse, UniProt P31695 1042-1441)
# T4 construct: domain: Notch4-NRR domain; not shown: secretory alkaline phosphatase (SEAP); 10x histidine tag
# T4 sequence (looked up): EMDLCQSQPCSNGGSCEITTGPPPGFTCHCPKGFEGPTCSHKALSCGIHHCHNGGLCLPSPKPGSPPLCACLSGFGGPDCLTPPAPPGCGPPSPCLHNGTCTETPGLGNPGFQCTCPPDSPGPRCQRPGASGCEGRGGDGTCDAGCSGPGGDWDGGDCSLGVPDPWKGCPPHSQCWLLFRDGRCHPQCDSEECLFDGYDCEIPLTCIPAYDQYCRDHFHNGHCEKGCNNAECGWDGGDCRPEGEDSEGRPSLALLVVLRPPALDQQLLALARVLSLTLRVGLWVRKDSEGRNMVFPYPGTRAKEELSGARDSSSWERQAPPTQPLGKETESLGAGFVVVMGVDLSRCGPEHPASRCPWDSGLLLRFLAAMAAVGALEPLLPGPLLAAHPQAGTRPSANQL
# What was measured:
# [1] = molecular target: T1, Human Notch4-NRR domain Fc fusion …; assay: SPR (Biacore) as for Table 30; Notch4-NRR-Fc captured, antibody injected; averaged, N=9
# Experimental: (§1) Kinetic analysis of further anti-Notch4 inhibitory humanized antibodies was carried out as follows. Human Notch4-NRR domain Fc fusion proteins were expressed with a CHO cell line. The antigen in the culture supernatant was captured by the anti-human Notch4 antibody fixed on a CM5 sensor chip that recognizes different epitopes of human Notch4. The humanized anti-human Notch4 antibody was then injected onto the sensor chip at various concentrations. The interaction and disassociation constants thereof were calculated according to manufacturer's instructions.
# [2] = molecular target: T2, Human Notch4-NRR-SEAP-HA-His; assay: SPR (BIAcore T100); antibody captured by anti-human IgG Fc on CM5, NRR-SEAP-HA-His injected at 6 concentrations
# Experimental: Kinetics analysis using BIAcore T100 was performed for the interaction between the NRR domain of human Notch isotypes (Notch1, Notch2, Notch3, and Notch4) and Antibody B. Antibody B was purified from the culture supernatant of a stable expression CHO cell line of Antibody B with sequential use of protein A affinity chromatography, Capto Q anion exchange chromatography, and UNOsphere S cation exchange chromatography. Fusion proteins of Human Notch1 NRR domain (Genbank Accession No. 017617; sequence positions 1307-1733), human Notch2 NRR domain (Genbank Accession No. 024408; sequence positions 1239-1650), human Notch3 NRR domain (Genbank Accession No. 000435; sequence positions 1246-1641), and human Notch4 NRR domain (Genbank Accession No. NP_004548.3; sequence positions 1046-1445) with secretory alkaline phosphatase (SEAP), a hemagglutinin (HA) tag, and a histidine tag (×10) were created, and these were purified with HisTrap™ Fast Flow column (GE Healthcare). The interaction between Antibody B and the NRR domain of each human Notch isotypes was measured with the following method. The purified Antibody B was captured by anti-human IgG Fc antibody fixed on a CM5 sensor chip (GE Healthcare). The purified NRR domain of each human Notch isotypes was injected onto the sensor chip at 6 different concentrations, and the interaction and dissociation with the antibody were observed as per operation manual.
# [3] = molecular target: T5, Notch4 with a part of the intracellular domain substituted with GAL4 DNA binding domain, on b.end3 reporter …; assay: cell-based or functional assay
# [4] = molecular target: T1, Human Notch4-NRR domain Fc fusion …; assay: SPR (Biacore) as for Table 30; Notch4-NRR-Fc captured, antibody injected; averaged, N=2
# Experimental: as §1
# [5] = molecular target: T3, Human Notch4-NRR domain fused with …; assay: SPR (Biacore); antibody captured by anti-human IgG Fc on CM5, Notch4-NRR-SEAP-His injected
# Experimental: (§2) Kinetic analysis of the interaction of human, cynomolgus monkey, mouse, and rat Notch4-NRR domains with Antibody B was carried out with BIACORE. […] The genes for these proteins were transfected into Expi293F cells in Opti-MEM (INVITROGEN) using ExpiFectamine 293. These cells were cultured in Expi293 Expression Medium (INVITROGEN). Briefly, cells were diluted to 7.5×10⁷ cells/25.5 mL, and transfected by ExpiFectamine 293 reagent on Day 0. About 16 hours after transfection, 150 uL of ExpiFectamine 293 Transfection Enhancer 1 and 1.5 mL of ExpiFectamine 293 Transfection Enhancer 2 were added to each flask. The supernatant was collected on Day 4. These antigens were purified with Ni-NTA Superflow column (QIAGEN). The interaction was analyzed as below. The purified Antibody B was captured by anti-human IgG Fc antibody fixed on a CM5 sensor chip (GE healthcare). The purified Notch4-NRR fusion proteins were injected onto the sensor chip at 8 different concentrations, and the interaction and dissociation thereof were observed as per manufacturer's instructions.
# [6] = molecular target: T6, Cynomolgus monkey Notch4-NRR domain fused with SEAP and 10× histidine tag (cynomolgus monkey, UniProt P05187 23-511 (human entry)); assay: as above
# T6 construct: not shown: 10x histidine tag
# T6 sequence (P05187 23-511): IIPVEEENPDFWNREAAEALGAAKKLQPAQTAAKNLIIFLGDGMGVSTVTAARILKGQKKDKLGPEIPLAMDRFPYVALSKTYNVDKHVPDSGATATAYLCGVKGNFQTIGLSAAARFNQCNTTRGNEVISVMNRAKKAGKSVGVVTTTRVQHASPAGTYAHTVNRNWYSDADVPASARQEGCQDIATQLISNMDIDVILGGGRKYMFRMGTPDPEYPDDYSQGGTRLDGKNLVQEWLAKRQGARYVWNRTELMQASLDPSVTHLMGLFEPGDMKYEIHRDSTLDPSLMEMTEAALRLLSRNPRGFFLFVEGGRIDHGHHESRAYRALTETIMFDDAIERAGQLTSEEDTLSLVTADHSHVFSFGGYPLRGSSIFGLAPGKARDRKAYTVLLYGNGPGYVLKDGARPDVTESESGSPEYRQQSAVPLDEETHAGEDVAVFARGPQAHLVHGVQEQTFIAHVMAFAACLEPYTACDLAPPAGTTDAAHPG
# Experimental: as §2
# [7] = molecular target: T4, Mouse Notch4-NRR domain fused with SEAP …; assay: as above
# Experimental: as §2
# [8] = molecular target: T5, Notch4 with a part of the intracellular …; assay: cell-based or functional assay; remark: listed apart in the source
# [9] = molecular target: T1, Human Notch4-NRR domain Fc fusion …; assay: SPR (Biacore); Notch4-NRR-Fc captured by another anti-Notch4 antibody on CM5, antibody injected
# Experimental: as §1
# [10] = molecular target: T1, Human Notch4-NRR domain Fc fusion …; assay: SPR (Biacore) as for Table 30; Notch4-NRR-Fc captured, antibody injected; averaged, N=5
# Experimental: as §1
binder,measurement,setting,value
"Mouse anti-human Notch4 monoclonal antibody 6-3-A6 (antibody, V domains shown, Mouse hybridoma antibody; cloned with primers for mouse IgG1 heavy chain and mouse Igκ light chain; also called Original) VH: EVQLVESGGGLVQPGGSLKLSCAASGFTFSSYGMSWVRQTPDKRLELVATINSNGGRTYYPDSVKGRFTISRDNAKNTLYLQMSSLKSEDTAMYYCARDQGFAYWGQGTLVTVSA VL: DIVMTQSHKFMSTSVGDRVSITCKASQDVGTAVAWYQQKPGQSPKLLIYWASTRHTGVPDRFTGSGSGTDFTLTISNVQSEDLADYFCQQYSSYPWTFGGGTKLEIK",Kd,[1],0.321 nM
same,koff,[1],0.000742 s⁻¹
same,kon,[1],2.35e+06 M⁻¹ s⁻¹
"Antibody B (antibody, human IgG2, kappa, Humanized IgG2 (V234A, G237A)/κ; also called HK3L3 (Lys-); HK3L3(Lys-)) heavy: EVQLVESGGGLVQPGGSLRLSCAASGFTFSSYGMSWVRQAPGKGLELVATINSNGGRTYYPDSVKGRFTISRDNSKNTLYLQMGSLKAEDMAVYYCARDQGFAYWGQGTLVTVSSASTKGPSVFPLAPCSRSTSESTAALGCLVKDYFPEPVTVSWNSGALTSGVHTFPAVLQSSGLYSLSSVVTVPSSNFGTQTYTCNVDHKPSNTKVDKTVERKCCVECPPCPAPPAAAPSVFLFPPKPKDTLMISRTPEVTCVVVDVSHEDPEVQFNWYVDGVEVHNAKTKPREEQFNSTFRVVSVLTVVHQDWLNGKEYKCKVSNKGLPAPIEKTISKTKGQPREPQVYTLPPSREEMTKNQVSLTCLVKGFYPSDIAVEWESNGQPENNYKTTPPMLDSDGSFFLYSKLTVDKSRWQQGNVFSCSVMHEALHNHYTQKSLSLSPG light: not shown",Kd,[2],30.5 nM
same,koff,[2],0.000831 s⁻¹
same,kon,[2],27200 M⁻¹ s⁻¹
same,"IC50 of relative luminescence (%), Notch4-GAL4 luciferase reporter assay, reporter cells stimulated with solid phased DLL4",[3],0.011 mg/L
same,Kd,[4],0.331 nM
same,koff,[4],0.000822 s⁻¹
same,kon,[4],2.48e+06 M⁻¹ s⁻¹
same,Kd,[5],3.74 nM
same,koff,[5],0.00118 s⁻¹
same,kon,[5],317000 M⁻¹ s⁻¹
same,Kd,[6],3.62 nM
same,koff,[6],0.00106 s⁻¹
same,kon,[6],295000 M⁻¹ s⁻¹
same,Kd,[7],11.2 nM
same,koff,[7],0.00727 s⁻¹
same,kon,[7],601000 M⁻¹ s⁻¹
same,"% of Control (relative luminescence), Notch4-GAL4 luciferase reporter assay, antibody at 10 µg/ml",[8],10.8 % of Control
same,Kd,[9],0.441 nM
same,koff,[9],0.00071 s⁻¹
same,kon,[9],1.66e+06 M⁻¹ s⁻¹
"Antibody D (antibody, human IgG2, kappa, Humanized IgG2 (V234A, G237A)/κ; also called HK3L5 (Lys-); HK3L5(Lys-)) heavy: EVQLVESGGGLVQPGGSLRLSCAASGFTFSSYGMSWVRQAPGKGLELVATINSNGGRTYYPDSVKGRFTISRDNSKNTLYLQMGSLKAEDMAVYYCARDQGFAYWGQGTLVTVSSASTKGPSVFPLAPCSRSTSESTAALGCLVKDYFPEPVTVSWNSGALTSGVHTFPAVLQSSGLYSLSSVVTVPSSNFGTQTYTCNVDHKPSNTKVDKTVERKCCVECPPCPAPPAAAPSVFLFPPKPKDTLMISRTPEVTCVVVDVSHEDPEVQFNWYVDGVEVHNAKTKPREEQFNSTFRVVSVLTVVHQDWLNGKEYKCKVSNKGLPAPIEKTISKTKGQPREPQVYTLPPSREEMTKNQVSLTCLVKGFYPSDIAVEWESNGQPENNYKTTPPMLDSDGSFFLYSKLTVDKSRWQQGNVFSCSVMHEALHNHYTQKSLSLSPG light: DIQMTQSPSSLSASVGDRVTITCKASQDVGTAVAWYQQKPGKSPKLLIYWASTRHTGVPSRFSGSGSGTDFTLTISSLQPEDVATYFCQQYSSYPWTFGQGTKVEIKRTVAAPSVFIFPPSDEQLKSGTASVVCLLNNFYPREAKVQWKVDNALQSGNSQESVTEQDSKDSTYSLSSTLTLSKADYEKHKVYACEVTHQGLSSPVTKSFNRGEC",Kd,[10],0.529 nM
same,koff,[10],0.00109 s⁻¹
same,kon,[10],2.1e+06 M⁻¹ s⁻¹
same,"% of Control (relative luminescence), Notch4-GAL4 luciferase reporter assay, antibody at 10 µg/ml",[8],21 % of Control
same,Kd,[9],0.475 nM
same,koff,[9],0.000863 s⁻¹
same,kon,[9],1.82e+06 M⁻¹ s⁻¹
"Antibody G (antibody, human IgG2, kappa, Humanized IgG2 (V234A, G237A)/κ; also called HK3L4 (Lys-); HK3L4(Lys-)) heavy: EVQLVESGGGLVQPGGSLRLSCAASGFTFSSYGMSWVRQAPGKGLELVATINSNGGRTYYPDSVKGRFTISRDNSKNTLYLQMGSLKAEDMAVYYCARDQGFAYWGQGTLVTVSSASTKGPSVFPLAPCSRSTSESTAALGCLVKDYFPEPVTVSWNSGALTSGVHTFPAVLQSSGLYSLSSVVTVPSSNFGTQTYTCNVDHKPSNTKVDKTVERKCCVECPPCPAPPAAAPSVFLFPPKPKDTLMISRTPEVTCVVVDVSHEDPEVQFNWYVDGVEVHNAKTKPREEQFNSTFRVVSVLTVVHQDWLNGKEYKCKVSNKGLPAPIEKTISKTKGQPREPQVYTLPPSREEMTKNQVSLTCLVKGFYPSDIAVEWESNGQPENNYKTTPPMLDSDGSFFLYSKLTVDKSRWQQGNVFSCSVMHEALHNHYTQKSLSLSPG light: not shown",Kd,[10],0.76 nM
same,koff,[10],0.00124 s⁻¹
same,kon,[10],1.86e+06 M⁻¹ s⁻¹
same,"% of Control (relative luminescence), Notch4-GAL4 luciferase reporter assay, antibody at 10 µg/ml",[8],13 % of Control
same,Kd,[9],0.633 nM
same,koff,[9],0.00111 s⁻¹
same,kon,[9],1.78e+06 M⁻¹ s⁻¹
